From publication PMC5473807, “Distribution and kinetics of the Kv1.3-blocking peptide HsTX1[R14A] in experimental rats” (Scientific Reports, 2017)
Where two headings read alike, the source gives them in different places.

Tests used:
[1] = Metabolite analysis by radio-TLC; format: in vivo; conditions: rat, i.v., one rat
Procedure: (§1) The analysis of [^64Cu]Cu-NOTA-HsTX1[R14A] degradation was analysed in one rat after single intravenous injection. The gas-anaesthetised (8% desflurane, 30% oxygen, air) rat was prepared on a heating bed for the blood sampling. A needle catheter was inserted in a tail vein and fixed for the injection of the radiotracer and supplementation of the withdrawn volume by E-153 (electrolyte infusion solution). A small incision on the right hind limb was made and a small superficial artery was exposed. A thin tube (polyethylene, 0.3 mm inner and 0.6 mm outer diameter) was inserted, moved to the femoral artery and fixed. Arterial blood samples were collected at 1, 3, 5, 10, 20, 30, 120 min p.i of the [^64Cu]Cu-NOTA-HsTX1[R14A]. After the end of experiment the anaesthetised animals were euthanised by infusion of KCl solution. For the differentiation of the activity distribution in the blood compartments (Fig. 3b) were blood samples centrifuged (3 min at 14,000 × g) to obtain the plasma (plasma total and blood cells in the precipitate). One kidney was homogenised with PBS (30% w/v) and then centrifuged as described for the blood samples. Urine was treated in analogy. All the supernatants from blood, kidney and urine samples were mixed with equal volume of MeCN to precipitate the protein fraction. The samples were again centrifuged (3 min at 14,000 × g), resulting in the precipitate the protein bound fraction (plasma proteins) and the supernatants (e.g. plasma water fraction) were analysed by radio-TLC with RP18 aluminium foil, MeCN/0.1% TFA mixed with H2O/0.1% TFA (v/v 1:1). The TLC plates were measured by radioluminography as described above. Aliquots of the whole blood samples and of all supernatants were measured for the ^64Cu activity concentration in a well counter.

[2] = Blood clearance kinetics, arterial blood and PET; format: in vivo; conditions: whole blood, rat, read-out: blood clearance half-life corrected for the metabolites
Procedure: The procedures are described in detail elsewhere, [34], [35]. Rats were anesthetised using 9% ± 1% desflurane in 30% oxygen and placed on a heat mat. The animals were kept warm under anesthesia until the end of the scan with a total duration of 4 h. The anesthetised animals were localised in a prone position in the axial direction of the scanner. A needle catheter was installed in a lateral tail vein or subcutaneously in the neck for injection using a syringe pump. PET studies were performed with the dedicated small animal PETs NanoPET/CT (Mediso, Budapest, Hungary) and microPET^(R) P4 (Siemens Medical Solutions, Erlangen, Germany). […] Three-dimensional regions of interest (ROI) were determined for subsequent data analysis. The standardised uptake values (SUV, g/mL) and standardised uptake ratios (SUR, as ratio of the SUVs of the tissue of interest and the blood SUV, derived from a region over the caudal arteria abdominalis and vena cava) were used to quantify the activity uptake and kinetics.
The analysis of [^64Cu]Cu-NOTA-HsTX1[R14A] degradation was analysed in one rat after single intravenous injection. […] The samples were again centrifuged (3 min at 14,000 × g), resulting in the precipitate the protein bound fraction (plasma proteins) and the supernatants (e.g. plasma water fraction) were analysed by radio-TLC with RP18 aluminium foil, MeCN/0.1% TFA mixed with H2O/0.1% TFA (v/v 1:1). […]

[3] = Tolerability in the animal experiments; format: in vivo, rat; conditions: rats, injections of up to 0.1 mg peptide/kg body weight, also anesthetised animals
[4] = Stability of the 64Cu complex against EDTA; format: physicochemical; conditions: 0.1 M aqueous EDTA solution, radio-TLC on iTLC-SA plates
Procedure: The radiolabelling yield and stability of ^64Cu-labelled peptide conjugate were monitored with radio-TLC (thin layer chromatography). Thin layer chromatograms were scanned by using a thin layer analyser (Rita Star, Raytest, Germany). The purity of the radiolabelled peptide was assayed using analytical RP-HPLC. Radio-HPLC was performed on a Knauer Smartline System fitted with an activity detector (Ramona Star, Raytest, Germany) using an Aqua C18 column (Phenomenex, 4.6 mm × 250 mm, 5 µm, 125 Å) with a gradient eluent of H2O + 0.05% TFA (A) and acetonitrile + 0.05% TFA (B); in 20 min 0–60% of B, 10 min 60–95% of B, 1 mL/min.
^64Cu-NOTA-HsTX1[R14A] was prepared by incubating ~1.2–24 nmol (5–100 µg) of NOTA-HsTX1[R14A]/100 µL (1 mg/mL H2O stock solution) with ^64CuCl2 (~35–55 MBq) dissolved in 0.2 mL of 0.1 M 2-(N-morpholino)ethansulfonic acid (MES)/NaOH buffer (pH 6.0) at 37 °C for 30 min. Formation of the ^64Cu^II complex was verified by radio-TLC on iTLC-SA plates (instant TLC medium impregnated with […], Agilent Technology) using H2O + 0.1% HCOOH as mobile phase (^64Cu(HCOO)2, R f = 0.4, ^64Cu-NOTA-peptide, R f = 0). The stability of the ^64Cu^II formed was assessed in the presence of 0.1 M EDTA solution. Radio-TLC was performed with iTLC-SA plates (Agilent Technology) using 0.1 M aqueous EDTA solution [(^64Cu]Cu-NOTA-peptide, R f = 0, ^64Cu-EDTA, R f = 0.9).

[5] = Distribution in the blood compartments; format: in vivo; conditions: rat, i.v., 0-4 h
Procedure: as §1

## CSCC[C@@H]1NC(=O)[C@@H]2CSSC[C@H](NC(=O)[C@H](CO)NC(=O)[C@H](C)NC(=O)COCCOCCNC(=O)CN3CCN(CC(=O)O)CCN(CC(=O)O)CC3)C(=O)N[C@@H](CCCNC(=N)N)C(=O)N[C@@H]([C@@H](C)O)C(=O)N3CCC[C@H]3C(=O)N[C@@H](CCCCN)C(=O)N[C@@H](CC(=O)O)C(=O)N[C@H]3CSSC[C@H](NC(=O)[C@H](CCCCN)NC(=O)[C@H](CCCNC(=N)N)NC(=O)[C@H](CC(N)=O)NC1=O)C(=O)N[C@@H](CCCCN)C(=O)N[C@H]1CSSC[C@H](NC(=O)[C@@H]4CCCN4C(=O)[C@H](CC(=O)O)NC(=O)[C@H](C)NC3=O)C(=O)N[C@@H](C)C(=O)N[C@@H](CCCCN)C(=O)N[C@@H](CCC(=O)O)C(=O)N[C@@H]([C@@H](C)O)C(=O)NCC(=O)N[C@@H](CSSC[C@@H](C(N)=O)NC(=O)[C@H](CCCNC(=N)N)NC(=O)[C@H](CC(N)=O)NC1=O)C(=O)N1CCC[C@H]1C(=O)N[C@@H](Cc1ccc(O)cc1)C(=O)NCC(=O)N[C@@H](CCCCN)C(=O)N2 [[^64Cu]Cu-NOTA-HsTX1[R14A], metal not drawn]
[1]; arterial blood plasma, after 4 h
  plasma activity still present as original compound: 85%
[1]; first 2 h
  metabolic stability in arterial blood plasma: without detectable radioactive metabolic products
[1]; kidney extract, 4 h
  original compound in the kidneys: 31%
[1]; urine, 4 h
  original compound in the urine: 15%
[2]; iv, i.v.
  half-life: 37 min
[2]; sc, s.c.
  half-life: 51 min
[3]
  toxic effects: did not show toxic effects
[4]
  time for which the 64Cu(II) complex is stable with EDTA: at least 24 h
[5]; MeCN precipitate, % of total blood activity
  fraction bound to plasma proteins: 5 ± 3%
[5]; centrifugation 3 min at 14,000 x g
  fraction in blood plasma: 82 ± 4 % of the whole blood ^64Cu activity
[5]; supernatant after MeCN precipitation, % of total blood activity
  fraction in plasma water: 75 ± 3%
